From paper PMC6310021 come the findings set out here.

In general, Kd refers to a measure of binding affinity in units of concentration.

The assay concerns the target purified rat recombinant TG2 protein (transgelin-2) (rat) (UniProt Q5XFX0). The assay is described as follows: SPR. (SPR reads the build-up and loss of mass on a sensor chip optically.)

Chain of purified rat recombinant TG2 protein (transgelin-2) (rat) (Q5XFX0 whole entry): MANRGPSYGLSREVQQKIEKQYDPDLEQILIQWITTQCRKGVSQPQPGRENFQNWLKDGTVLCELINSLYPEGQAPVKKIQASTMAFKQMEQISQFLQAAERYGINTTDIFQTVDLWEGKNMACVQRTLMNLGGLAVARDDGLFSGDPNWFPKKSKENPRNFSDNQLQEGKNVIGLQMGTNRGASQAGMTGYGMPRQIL

Turning to “ezrin (analyte in Biacore surface plasmon resonance) (from UniProt P31977 1-586) (natural protein)”, the dissociation constant (Kd) was 0.0733 µM.
